{
  "source": "patent US11026994B2",
  "about": "“Syndecan-2 compositions and methods of use” (ORBSEN THERAPEUTICS LIMITED, priority 2013, dated 2021)",
  "molecules": {"B1": {"name": "Recombinant SDC2: recombinant Syndecan-2 (SDC2) protein (protein, UniProt P34741 19-201, looked up)", "Syndecan-2": "ESRAELTSDKDMYLDNSSIEEASGVYPIDDDDYASASGSGADEDVESPELTTSRPLPKILLTSAAPKVETTTLNIQNKIPAQTKSPEETDKEKVHLSDSERKMDPAEEDTNVYTEKHSDSLFKRTEVLAAVIAGGVIGFLFAIFLILLLVYRMRKKDEGSYDLGERKPSSAAYQKAPTKEFYA"}},
  "key": {"SDC2 RNA": {"test_system": "SDC2 RNA", "assay": "SDC2 RNA levels in treated cell populations", "type": "cell-based, human", "description": "HDAC inhibitors and sirtuins may be used to increase SDC2 expression. […] The sirtuin family of HDACs, including SIRT1 and SIRT2, may be used to increase SDC2 expression. The sirtuins are NAD-dependant HDACs and are reported to deacetylate p53 protein—acetylation of p53 is reported to be important for its transactivation/transcription activity. Thus sirtuins are key regulators of p53 activity. Examples of sirtuins include nicotinamide, sirtinol, EX-527 and tenovins. […] DMSO is also reported to contain HDAC inhibitor (p53 activation) capacity.\nDMOG is a hypoxia mimetic, and other hypoxia mimetics for use in the invention include cobalt chloride, EDHB and desferrioxamine. Hypoxia is reported to stimulate p53 (via ATR/CHK1 kinases).\nWe tested various HDAC inhibitors for their effect on SDC2 expression on human cell populations initially isolated on the basis of SDC2 expression and maintained subsequently in culture."}, "SDC2 secretion": {"test_system": "SDC2 secretion", "assay": "SDC2 secretion after environmental toxin BPDE", "type": "cell-based, human", "settings": "600 nM BPDE"}, "[1]": {"test_system": "SDC2 shedding from human MSCs", "assay": "SDC2 ELISA of supernatants of Nutlin-3a treated MSCs", "type": "cell-based", "settings": "24 h", "procedure": "MSCs were plated at a density of 10^5 cells per well of a 6-well plate (Nunc) in complete media (α-MEM, 10% FBS) and left to adhere overnight. Medium was then exchanged for serum-free containing Nutlin-3a or DMSO as a carrier control. 24 h post-induction the cells were harvested for both RNA and protein and the serum-free supernatant was collected for ELISA.\nThe levels of human Syndecan-2 was measured in supernatants collected from hMSCs using commercially available ELISA assays (CUSABIO). The assay was conducted as per the manufacturer's instructions. Calibration curves were prepared using purified standards for SDC2. Curve fitting was accomplished by sigmoidal logisitic regression following manufacturer's instructions.\n24 h post-treatment with Nutlin-3a (5, 10, 20 μM) or DMSO carrier control (5, 20 μM), the supernatant from MSCs was collected, centrifuged for 5 min at 1500 rpm and subjected to SDC2 ELISA including unconditioned serum-free media as an additional control.\nMSCs treated with either Nutlin-3a or DMSO as a carrier control for 24 h in serum-free media. The serum-free supernatants were collected and a commercially available SDC2 ELISA kit was used to detect shed SDC2 present in the supernatants."}, "[2]": {"test_system": "NFκB activation by TNFα and IL1β", "assay": "κB luciferase assay in A549 cells pretreated with SDC2 recombinant protein", "type": "cell-based", "settings": "10 ng/mL TNF-α/IL-1β, 24 hours", "procedure": "A549 cells stably transduced with κB luciferase plasmid were pretreated for 1 hour with SDC2 recombinant protein. 10 ng/mL TNF-α/IL-1β was added to the media and luciferase assay performed after 24 hours. The results are shown in FIG. 5. ***=p<0.0001 with respect to 0 ng/mL S2\nA549 cells stably transduced with KB luciferase plasmid and treated for 24 hours with recombinant SDC2. In the top panel: cytokines were added to the media for 24 hours and luciferase assay performed. In the bottom panel: media was replaced before addition of cytokines for 24 hours. *=p<0.01 with respect to 0 ng/mL S2; ***=p<0.0001 with respect to 0 ng/mL S2; +++=p<0.0001 with respect to 100 ng/mL S2."}, "HCT116": {"test_system": "HCT116", "assay": "Cancer cell migration toward conditioned medium (xCELLigence RTCA)", "type": "cell-based", "parameters": "key: ↑: increased migration compared to conditioned media; ↓: decreased cell migration compared to conditioned media; —: no changed compared to conditioned media", "description": "(§1) Cell migration is a critical parameter for in vitro cell culture-related studies. It is necessary to monitor the dynamic changes of cell populations under different conditions. Using a real time cell analyser (RTCA, xCELLigence, Roche) which is an impedance-based device we can monitor the following properties in real time: proliferation, migration and cell adherence. Such properties are involved in cancer evolution. We used this method to establish the migratory capacity of cancer cells toward conditioned medium. The model is accepted as predictive of efficacy in cancer therapy—reduced migration in the model indicates anti-cancer properties.\n(§2) In our investigations, cell migration was determined using 16-well CIM plates read in real-time using the aforementioned xCELLigence device. For these studies a variety of cancer cell lines were used from breast cancer (MDA-MB-231, MDA-MB-486, MCF-10A), prostate cancer (DU145), pancreas cancer (SU-86-86) and colon carcinoma (HCT116)."}, "MDA-MB-231": {"test_system": "MDA-MB-231", "assay": "Cancer cell migration toward conditioned medium (xCELLigence RTCA)", "type": "cell-based", "settings": "one symbol per experiment", "description": "as §1, §2"}, "SU-86-86": {"test_system": "SU-86-86", "assay": "Cancer cell migration toward conditioned medium (xCELLigence RTCA)", "type": "cell-based", "description": "as §1, §2"}, "Du145": {"test_system": "Du145", "assay": "Cancer cell migration toward conditioned medium (xCELLigence RTCA)", "type": "cell-based", "settings": "Recombinant SDC2 500 ng/ml", "description": "as §1, §2"}, "[3]": {"settings": "at 24 hrs, human cell populations isolated on SDC2 expression"}, "[4]": {"settings": "other series of tests, time not given"}},
  "note": "Entries after “also recorded” stand apart in the source; their conditions may differ.",
  "data": [
    {"molecule": "2-pyrrolidinone-n-butyric acid [PBA]", "values": [
      {"measurement": "SDC2 RNA levels", "setting": "SDC2 RNA; [3]", "value": "increased SDC2 RNA levels"}
    ]},
    {"molecule": "OC1c2cc3ccc4cccc5ccc(c2C2OC2C1O)c3c45", "note": "(stereo not drawn) [BPDE, benzo[a]pyrene-7,8-diol-9,10-epoxide]", "values": [
      {"measurement": "increase of SDC2 secretion", "setting": "SDC2 secretion", "value": "approximately 3 fold"}
    ]},
    {"molecule": "COC(=O)CNC(=O)C(=O)OC", "note": "[DMOG, Dimethyloxaloylglycine]", "values": [
      {"measurement": "SDC2 RNA levels", "setting": "SDC2 RNA; [4]", "value": "very robust increase in SDC2 RNA"}
    ]},
    {"molecule": "C[S+](C)[O-]", "note": "[DMSO]", "values": [
      {"measurement": "SDC2 RNA levels", "setting": "SDC2 RNA; [4]", "value": "increased SDC2 RNA levels"}
    ]},
    {"molecule": "COc1ccc(C2=N[C@@H](c3ccc(Cl)cc3)[C@@H](c3ccc(Cl)cc3)N2C(=O)N2CCNC(=O)C2)c(OC(C)C)c1", "note": "[Nutlin-3a]", "values": [
      {"measurement": "SDC2 shedding", "setting": "[1]; 5, 10, 20 μM, compared to DMSO control", "value": "dose-dependent increase in SDC2 shedding"},
      {"measurement": "amount of shed SDC2", "setting": "[1]; Nutlin-3a 20 μM, serum-free, average of three MSC donors", "value": "~1000", "unit": "pg/mL"}
    ]},
    {"molecule": "O=C1CCc2c(ccc3ccccc23)O1", "note": "[Splitomicin]", "values": [
      {"measurement": "SDC2 RNA levels", "setting": "SDC2 RNA; [3]", "value": "increased SDC2 RNA levels; also recorded: greatest stimulation"}
    ]},
    {"molecule": "CCCC(CCC)C(=O)O", "note": "[Valproic Acid]", "values": [
      {"measurement": "SDC2 RNA levels", "setting": "SDC2 RNA; [3]", "value": "increased SDC2 RNA levels"}
    ]},
    {"molecule": "B1", "values": [
      {"measurement": "NFκB activation by TNFα and IL1β", "setting": "[2]", "value": "suppressed NFκB activation"},
      {"measurement": "Cancer Cell Migration", "setting": "HCT116; Recombinant SDC2 100 ng/ml", "value": "↓"},
      {"measurement": "Cancer Cell Migration", "setting": "HCT116; Recombinant SDC2 500 ng/ml", "value": "↓"},
      {"measurement": "Cancer Cell Migration", "setting": "HCT116; Recombinant SDC2 1000 ng/ml", "value": "↓"},
      {"measurement": "Cancer Cell Migration", "setting": "MDA-MB-231; Recombinant SDC2 100 ng/ml", "value": "↓↓"},
      {"measurement": "Cancer Cell Migration", "setting": "MDA-MB-231; Recombinant SDC2 500 ng/ml", "value": "↓↓↓↓↓—"},
      {"measurement": "Cancer Cell Migration", "setting": "SU-86-86; Recombinant SDC2 100 ng/ml", "value": "↓↑"},
      {"measurement": "Cancer Cell Migration", "setting": "SU-86-86; Recombinant SDC2 500 ng/ml", "value": "↓↓"},
      {"measurement": "Cancer Cell Migration", "setting": "SU-86-86; Recombinant SDC2 1000 ng/ml", "value": "↓↑"},
      {"measurement": "Cancer Cell Migration", "setting": "Du145", "value": "↓—"}
    ]}
  ]
}
